± gives the uncertainty stated by the source.

The data set can be described thus: abundance fitness (aPCA) (normalised: wild type 0, dead -1); higher = more abundant; growth selection in yeast, the domain comes from the species named. The following applies: Homo sapiens.
In turn, “Telomeric repeat-binding factor 2 A513T, Q15554” registered an abundance fitness of 0.25 ± 0.098.

As for “Telomeric repeat-binding factor 2 A514R, Q15554”, the abundance fitness was -0.428 ± 0.11. “Telomeric repeat-binding factor 2 E509V, Q15554”: the abundance fitness was -0.353 ± 0.076.

On to “Telomeric repeat-binding factor 2 I529L, Q15554”, for which the abundance fitness was -0.213 ± 0.079. Take “Telomeric repeat-binding factor 2 K491R, Q15554”: the abundance fitness is -0.21 ± 0.065.

For the substance “Telomeric repeat-binding factor 2 K517Q, Q15554”, the abundance fitness was -0.035 ± 0.044. With “Telomeric repeat-binding factor 2 N518H, Q15554”, the abundance fitness was -0.227 ± 0.068. The same measure for “Telomeric repeat-binding factor 2 N523D, Q15554”: -0.199 ± 0.061; for “Telomeric repeat-binding factor 2 P520D, Q15554”: -0.564 ± 0.055.

For “Telomeric repeat-binding factor 2 Q490K, Q15554”, the abundance fitness was -0.247 ± 0.21. On to “Telomeric repeat-binding factor 2 S497D, Q15554”, for which the abundance fitness was found to be 0.392 ± 0.099.

Substance “Telomeric repeat-binding factor 2 S516L, Q15554” displayed an abundance fitness of 0.222 ± 0.087. “Telomeric repeat-binding factor 2 V522R, Q15554” came in with an abundance fitness of 0.031 ± 0.058.

For “Telomeric repeat-binding factor 2 W499Q, Q15554”, the abundance fitness is -0.018 ± 0.095. Take “Telomeric repeat-binding factor 2 Y507F, Q15554”: the abundance fitness was -0.559 ± 0.17.
